Experimental findings from publication PMC4890538 are described below.

The target in test [1] is recombinant Glutathione-S-Transferase (GST) tagged PfLDH (Plasmodium falciparum lactate dehydrogenase) (Plasmodium falciparum). Kind of test: fluorescence polarisation. (In general: Fluorescence polarisation rises when a labelled molecule tumbles more slowly, as on binding a larger partner.)
Test [2] has the same target.

Chain of recombinant Glutathione-S-Transferase (GST) tagged PfLDH (Plasmodium falciparum lactate dehydrogenase) (Plasmodium falciparum) (Q27743 whole entry): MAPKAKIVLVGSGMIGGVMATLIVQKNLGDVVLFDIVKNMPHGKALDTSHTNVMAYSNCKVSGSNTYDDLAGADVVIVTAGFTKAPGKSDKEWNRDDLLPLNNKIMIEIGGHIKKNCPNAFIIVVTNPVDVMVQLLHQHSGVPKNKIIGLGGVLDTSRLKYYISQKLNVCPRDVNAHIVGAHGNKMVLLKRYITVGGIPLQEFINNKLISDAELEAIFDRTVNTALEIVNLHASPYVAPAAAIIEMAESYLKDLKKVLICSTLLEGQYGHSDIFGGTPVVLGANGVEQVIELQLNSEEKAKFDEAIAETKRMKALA

The Kd is the constant that tells how readily two partners part at equilibrium. Consider HWSAN (not fully specified) [Cy(HWSAN-click), fluorescein tagged], for which the Kd in test [1] stood at 40.6 nM. The term EC50 denotes the concentration at which the effect is half-maximal. As to HWSAN (not fully specified) [Cy(HWSAN-click), biotin tagged], the EC50 in test [2] turned out to be 23.4 nM.
